Data on one molecule can be found in patent US12679870 (US Dept. of Health and Human Services, dated 2026).

The assay addresses T1, HMPV F v3BΔ12 (V84C/A249C, A140C/A147C, substitution of HMPV F positions 89-112 to GSGGSG) (human metapneumovirus, B2 strain …).
T1 construct: That entry starts at K20, has no tags, and differs from the v3-B backbone at positions 185 and 323; also called HMPV F v3B with the L0.1 F1/F2 linker
T1 chain: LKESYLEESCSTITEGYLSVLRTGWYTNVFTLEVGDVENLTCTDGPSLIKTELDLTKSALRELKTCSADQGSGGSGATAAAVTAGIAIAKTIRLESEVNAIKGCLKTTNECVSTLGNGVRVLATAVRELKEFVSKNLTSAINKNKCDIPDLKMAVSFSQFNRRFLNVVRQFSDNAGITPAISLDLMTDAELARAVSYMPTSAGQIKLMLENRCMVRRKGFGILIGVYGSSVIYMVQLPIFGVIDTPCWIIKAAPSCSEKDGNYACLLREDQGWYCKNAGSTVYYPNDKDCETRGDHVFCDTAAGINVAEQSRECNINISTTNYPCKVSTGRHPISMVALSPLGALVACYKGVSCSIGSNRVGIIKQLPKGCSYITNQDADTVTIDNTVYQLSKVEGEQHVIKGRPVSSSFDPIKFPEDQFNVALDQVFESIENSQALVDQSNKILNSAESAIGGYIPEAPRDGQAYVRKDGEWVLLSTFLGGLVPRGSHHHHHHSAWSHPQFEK
Put plainly: antigenic assessment of F1/F2 linker variants, FIG. 13.

B1: MPE8 antibody (Fab, V domains shown)
VH: EVQLVESGGGLVKPGGSLRLSCAASGFTFSSYSMNWVRQAPGKGLEWVSSISASSSYSDYADSAKGRFTISRDNAKTSLFLQMNSLRAEDTAIYFCARARATGYSSITPYFDIWGQGTLVTVSS
VL: QSVVTQPPSVSGAPGQRVTISCTGSSSNIGAGYDVHWYQQLPGTAPKLLIYDNNNRPSGVPDRFSASKSGTSASLAITGLQAEDEADYYCQSYDRSLSGVFGTGTKVTVL
notes: The text calls it an antibody; also called prefusion specific antibody MPE8
Regarding B1, the “fold increase in binding compared to v1B” value is more than 10 fold.
